Reference: PMC7954794, “Protein context shapes the specificity of SH3 domain-mediated interactions in vivo” (Nature Communications, 2021)

Test system: PPIs identified as affected by the SH3 domain deletions
Test: Liquid DHFR-PCA low-throughput validation of PPIs affected by SH3 deletion (Fig. S1D-E)
Assay type: cell-based, Saccharomyces cerevisiae
Details: label = prey, liquid DHFR-PCA, prey _1 = lost, _2 = gained in screen
In short: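 Growth at 30 °C was tracked by OD each 15 min over 72 h in agar-free PCA selection medium, starting at 0.1 OD. Cells were diploids selected after mating, first cultured 48 h with NAT and HPH in synthetic complete MSG medium, pH 6.0.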

Molecule	Ratio (Deletedscore / WTscore) (bait LSB3)	Ratio (Deletedscore / WTscore) (bait LSB1)	Ratio (Deletedscore / WTscore) (bait MYO5)	further results
YJL201W_1 (protein, UniProt P32525 1-599, looked up) Protein ECM25: MIDINVNNIFFRSYSVDPNSGHAIYVFDSTYLPASDEIGDKQVYDLLINALMDRLVMKLPQAPYSLVIFSSGFSQRKISWVYGIKMFAKLPKETKFYLQKIFIVHESFFVRSVYQVISNAMNFNFLDSKDSQHDFPSLVHVLDLTSLSELIDITRLRISLNVYLYDYQIREHINVPEEYYNRLTPLAIRQYRQLVFDKIFKKLQNDALLCELIFQKPGNYKKVNIFLDIIKRNNYIDLSQWDIYSLASVWLNYFIKNKAKPLIPIELIPLPIVDDLKFTSETFRKIIKFNQYQDLFMVIIPFFNRIIAHGESTKHDSRTLSKALTPALCKEKLSMMTNDRLAIGSRYIKNLLDFFPEIAKEISSPPSSVSSSSTIPVLPKPRKSSPTRYSELGCLTLPRSRSPSPQRSVTSPTYTPVALQNTPVLKPKSSSRNVSSPSFNAKPPLPIKAVTRPQLSLTSNSNTDLALASSSTDTLSSPTKTPSADSLPLSNSSTDLTISDNIKEMVKDEPAKDKNSVETDIFVQQFESLTLVQNAKIKKFDKELQEKKKKNETTSKTADKFSQKGYSDIKASNKVSRLAALYEERLQGLQVMNEMKQRW	0.8948			
YCR009C_1 (protein, UniProt P25343 1-265, looked up) Reduced viability upon …: MSWEGFKKAINRAGHSVIIKNVDKTIDKEYDMEERRYKVLQRAGEALQKEAKGFLDSLRAVTASQTTIAEVISNLYDDSKYVAGGGYNVGNYYLQCVQDFDSETVKQLDGPLRETVLDPITKFSTYFKEIEEAIKKRDHKKQDFDAAKAKVRRLVDKPAKDASKLPRAEKELSLAKDIFENLNNQLKTELPQLVSLRVPYFDPSFEALIKIQLRFCTDGYTRLAQIQQYLDQQSRDDYANGLLDTKIEELLGQMTSLDICALGIK	0.7612	0.9386	0.8072	Ratio (Deletedscore / WTscore) (bait MYO3): 0.6894
YNL229C_1 (protein, UniProt P23202 2-354, looked up) Transcriptional regulator URE2: MNNNGNQVSNLSNALRQVNIGNRNSNTTTDQSNINFEFSTGVNNNNNNNSSSNNNNVQNNNSGRNGSQNNDNENNIKNTLEQHRQQQQAFSDMSHVEYSRITKFFQEQPLEGYTLFSHRSAPNGFKVAIVLSELGFHYNTIFLDFNLGEHRAPEFVSVNPNARVPALIDHGMDNLSIWESGAILLHLVNKYYKETGNPLLWSDDLADQSQINAWLFFQTSGHAPMIGQALHFRYFHSQKIASAVERYTDEVRRVYGVVEMALAERREALVMELDTENAAAYSAGTTPMSQSRFFDYPVWLVGDKLTIADLAFVPWNNVVDRIGINIKIEFPEVYKWTKHMMRRPAVIKALRGE		1.043		
YGR037C_1 (protein, UniProt P31787 1-87, looked up) Acyl-CoA-binding protein: MVSQLFEEKAKAVNELPTKPSTDELLELYALYKQATVGDNDKEKPGIFNMKDRYKWEAWENLKGKSQEDAEKEYIALVDQLIAKYSS		1.041		
YIL095W_1 (protein, UniProt P40494 1-810, looked up) Actin-regulating kinase PRK1: MNTPQISLYEPGTILTVGSHHAKIIKYLTSGGFAQVYTAEISPPDPYSNANIACLKRVIVPHKQGLNTLRAEVDAMKLLRNNKHVVSYIDSHAARSVNGIAYEVFVLMEFCERGGLIDFMNTRLQNRLQESEILEIMSQTVQGITAMHALQPPLIHRDIKIENVLISHDGLYKVCDFGSVSGVIRPPRNTQEFNYVQHDILTNTTAQYRSPEMIDLYRGLPIDEKSDIWALGVFLYKICYYTTPFEKSGEAGILHARYQYPSFPQYSDRLKNLIRLMLMEAPSQRPNICQVLEEVSRLQNKPCPIRNFYLLRAMNQNANTQLAGEPSSTTYVPTQKFIPVQSLQSINQPPNMMPVTHVSTTPNLGTFPISINDNNKTEVTAHAGLQVGSHSNLTSPLMKTKSVPLSDEFASLYYKELHPFQKSQTFKSVESFQSPQRKSMPPLSLTPVNNDIFDRVSAINRPNNYVDSETQTIDNMAVPNLKLSPTITSKSLSSTKEIAAPDNINGSKIVRSLSSKLKKVITGESRGNSPIKSRQNTGDSIRSAFGKLRHGFTGNSVNNSRSASFDNNNVNGNGNNTNRRLVSSSTSSFPKFNSDTKRKEESDKNQRLEKRRSMPPSILSDFDQHERNNSRTGSRDYYRSHSPVKKTQASAKTTSKPTLIPDNGNVNINQEKKESIQRRVHNLLKSSDDPVTYKSASGYGKYTDIGTETSNRHSSVRITPITEEKFKKTLKDGVLDIKTKSNGKDKSRPPRPPPKPLHLRTEIQKIRNFSRLQSKKLPIERISSEATETIVDVNVDDLEADFRKRFPSKV	0.5323			
YLR144C_1 (protein, UniProt Q12168 1-779, looked up) Glucan …: MCYSRQAIPPPVPNRPGGTTNRGPPPLPPRANVQPPVCSSENSSKPRENRVAGESLRTPSSSNPLADSQVNSDNIFQSPVLSNLKAPPSVFNKVQHPVPKPNIDDQSVDPLETNKFYTNMLLDDNTQPIWTHPYSIWFSRDPELFGLAANHTLASQRVFDTTTNPPRFYFNPTNIKSFVFKAREFVSSNDIKLEFRDMKHMSMCLLMSLSSSQFIEFPLVQGMGFVTAIYHDLGFELRSAVGFRSLERISVNERYGKYNIQLENNRNWILYLTSPDYSFPQDFQISLLDSNTIISSHKINGLICQLSADSVPSIDMAAGCYPVYCDLSGQTVDEHFTNYRFNYTVAGYSQSGTTLMYALPHHKAAFTPEMQEREIASSLDSTVKGLMTGYLTNSFDMQVQVPQELGFEPVALSLNKKADYSQEKLSKIREAAVQEVQLSDPQQESNIDSMYFSGKILAKYAWILYVTHYILHDENLTKELLSKLTIAMERFISNQQVLPLNYDVSWKGIISSGSSSQDFGNSYYNDHHFHYSYHVITAAIISLVDSDLSGVTNNSWLENNRDWVECLIRDYSGVDNDDPYFPQFRSFDWFNGHSWAKGLFPSGDGKDEESTSEDVNSCYAIKLWGLVTGNSKLTDIANLQLGIMRNVFQSYFLYESNNTVQPKEFIGNKVSGILFENKIDHATYFGMEPQYIHMIHAIPITSASSWVRTPNFVKEEWEEKMQPIIDQVNDGWKGIIMLNMALLDPKFSYDFFSQPDFNRNFLDNGQSLTWSLAYSGAFS	0.9902	1.001		Ratio (Deletedscore / WTscore) (bait PIN3): 0.9919
YHR016C_1 (protein, UniProt P32793 1-468, looked up) Protein YSC84: MGINNPIPRSLKSETKKAAKVLRSFVKPNQVFGADQVIPPYVLKRAKGLAIITVLKAGFLFSGRAGSGVIVARLKDGTWSAPSAIAMAGAGAGGMVGVELTDFVFILNSEEAVRSFSEFGTITLGGNVSVSAGPLGRSAEAAASASTGGVSAVFAYSKSKGLFAGVSVEGSAILERREANRKFYGDNCTSKMILSGRVKVPPAADPLLRILESRAFNFTRHDHDDNASGDDFYDDGQYSDNTSHYYDDIPDSFDSTDESSTRPNTRSSRRRGMSLGSRSRYDDDYDDDGYGRGRGYGDFDSEDEDYDYGRSPNRNSSRNRGPQIDRGTKPRANTRWEDDLYDRDTEYSRPNHSGRDYDNTRGNRRGYGRERGYSLGHGPTHPSNMSNVDDLSHKMSKTGLGNESTATNSATPTAVALYNFAGEQPGDLAFKKGDVITILKKSDSQNDWWTGRTNGKEGIFPANYVRVS			0.6586	Ratio (Deletedscore / WTscore) (bait HOF1): 0.9486; Ratio (Deletedscore / WTscore) (bait RVS167): 0.5834
YML016C_2 (protein, UniProt P26570 2-692, looked up) Serine/threonine-protein …: GNSSSKSSKKDSHSNSSSRNPRPQVSRTETSHSVKSAKSNKSSRSRRSLPSSSTTNTNSNVPDPSTPSKPNLEVNHQRHSSHTNRYHFPSSSHSHSNSQNELLTTPSSSSTKRPSTSRRSSYNTKAAADLPPSMIQMEPKSPILKTNNSSTHVSKHKSSYSSTYYENALTDDDNDDKDNDISHTKRFSRSSNSRPSSIRSGSVSRRKSDVTHEEPNNGSYSSNNQENYLVQALTRSNSHASSLHSRKSSFGSDGNTAYSTPLNSPGLSKLTDHSGEYFTSNSTSSLNHHSSRDIYPSKHISNDDDIENSSQLSNIHASMENVNDKNNNITDSKKDPNEEFNDIMQSSGNKNAPKKFKKPIDIDETIQKLLDAGYAAKRTKNVCLKNNEILQICIKAREIFLSQPSLLELSPPVKIVGDVHGQYGDLLRLFTKCGFPPSSNYLFLGDYVDRGKQSLETILLLFCYKIKYPENFFLLRGNHECANVTRVYGFYDECKRRCNIKIWKTFIDTFNTLPLAAIVAGKIFCVHGGLSPVLNSMDEIRHVVRPTDVPDFGLINDLLWSDPTDSPNEWEDNERGVSYCYNKVAINKFLNKFGFDLVCRAHMVVEDGYEFFNDRSLVTVFSAPNYCGEFDNWGAVMSVSEGLLCSFELLDPLDSAALKQVMKKGRQERKLANQQQQMMETSITNDNESQQ				Ratio (Deletedscore / WTscore) (bait ABP1): 1.259; Ratio (Deletedscore / WTscore) (bait BOI1): 1.203; Ratio (Deletedscore / WTscore) (bait BZZ1-2): 1.516
YNL084C_1 (protein, UniProt P39013 1-349, looked up) Actin cytoskeleton-regulatory …: MPKLEQFEIKKYWQIFSGLKPIENKVNHDQVLPILYNSKLDSSVLNKIWFLADIDDDDNLDFEEFVICMRLIFDMVNKNISSVPDELPDWLIPGSKVNLIKERKKRKQIENADLPPKKEIKVDWYMSPDDLNQYEKIYNSCAKLTDGTITFNELSTKLSTKFFNISKTDLNKVWSLINPQNLPSIDRDPTFYFIHCLRQRNDLGAEIPASLPNSLAEVCNKKQLSYDLRSSQPPTKRKEEANEVDNLRDNGQNSSSDSSGSNVLSNEDSIKQKYASLTDDQVANMREQLEGLLNYKKSEKTQGGSKLSKRINIRSITDDLDNIEQQVEVLENYLNNKRHELQALQAEIN	0.8689	0.7759	0.7027	Ratio (Deletedscore / WTscore) (bait MYO3): 0.5035
